# Results: patent publication US20190292266A1
# Columns and labels:
# [1] = target: CD3 (Example 7); experiment: SPR, biotinylated CD3 on SA chip, Langmuir 1:1
# [2] = target: PD1 (immobilized target, Example 7); experiment: SPR, PD1 immobilized on CM5 chip, Langmuir 1:1
# CD3 (Example 7), sequence (P22646 22-108): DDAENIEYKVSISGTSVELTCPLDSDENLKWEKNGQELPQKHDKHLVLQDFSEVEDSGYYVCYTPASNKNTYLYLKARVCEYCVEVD
Kd [1],koff [1],kon [1],Kd [2],koff [2],kon [2],Binder
3.92 nM,0.0015 s⁻¹,381000 M⁻¹ s⁻¹,36.2 nM,0.000282 s⁻¹,7780 M⁻¹ s⁻¹,"145-2C11 Fab CL 128187 (bispecific antibody, modifications not checked) heavy: EVQLVESGGGLVQPGKSLKLSCEASGFTFSGYGMHWVRQAPGRGLESVAYITSSSINIKYADAVKGRFTVSRDNAKNLLFLQMNILKSEDTAMYYCARFDWDKNYWGQGTMVTVSSAKTTAPSVYPLAPACDSTTSTTNTVTLGCLVKGYFPEPVTVIWNSGALTSGVHTFPSVLHSGLYSLSSSVTVPSSTWPSQTVTCNVAHPASSTTVDLKIE light: not shown"
10.8 nM,0.00306 s⁻¹,284000 M⁻¹ s⁻¹,4.61 nM,0.000229 s⁻¹,49600 M⁻¹ s⁻¹,"145-2C11 Fab NH 128187 (bispecific antibody, modifications not checked) heavy: not shown light: DIQMTQSPSSLPASLGDRVTINCQASQDISNYLNWYQQKPGKAPKLLIYYTNKLADGVPSRFSGSGSGRDSSFTISSLESEDIGSYYCQQYYNYPWTFGPGTKLEIKRADAKPTVSIFPPSSEQLGTGSATLVCFVNNFYPKDINVKWKVDGSEKRDGVLQSVTDQDSKDSTYSLSSTLSLTKADYERHNLYTCEVTHKTSTAAIVKTLNRNEC"
2.14 nM,0.00126 s⁻¹,587000 M⁻¹ s⁻¹,686 nM,9.45e-05 s⁻¹,138 M⁻¹ s⁻¹,"145-2C11 Fab CH 128187 (bispecific antibody, modifications not checked) heavy: not shown light: DIQMTQSPSSLPASLGDRVTINCQASQDISNYLNWYQQKPGKAPKLLIYYTNKLADGVPSRFSGSGSGRDSSFTISSLESEDIGSYYCQQYYNYPWTFGPGTKLEIKRADAKPTVSIFPPSSEQLGTGSATLVCFVNNFYPKDINVKWKVDGSEKRDGVLQSVTDQDSKDSTYSLSSTLSLTKADYERHNLYTCEVTHKTSTAAIVKTLNRNEC"
